Experimental findings from a protein production outcome set (Wang et al. 2014) are described below.

This series in a line: label from the status in PepcDB records.
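Further: failed if final PepcDB status was selected cloned or expressed and not failed if soluble or beyond.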

For “MPPDEIEIEPVRQSSDKMLYCEAESPPTVEKVKPARENSETDLEIEDDEKFFTTGQKELYLEACKLMGVVPVSYFIRNMEESYVNLNHHGLGPRGTKAIAIALVSNMAVTKLELEDNCIMEEGVLSLVEMLQENYYLQEMNISNNHLGLEGARIISDFFERNSSSIWSLELSGNDFKEDSAALLCQALSTNYQIKKLDLSHNQFSDVGGEHLGQMLAINVGLTSLDLSWNNFHTRGAVALCNGLRGNVTLTKLDLSMNGFGNEVALALGEVLRLNRCLVYLDIGGNDIGNEGASKISKGLESNESLRVLKLFLNPINMDGAILLILAIKRNPKSRMEELDISNVLVSEQFMKTLDGVYAVHPQLDVVFKAVQGLSPKKTIFLLTNPMKLIQSYADQHKITIVDFFKSLNPTGTMKMSVDEFQKVMIEQNKVPLNQYQVREVIKKLDEKTGMVNFSFLNTMKP”, the protein production result is “failed”.
For “MPPFMSGLRAVSSLLSCRNAISRKLVSRSGIPRGSFVSDQIRRFGSLSGVERCSSNWLMSNDDARVSFRRLPGSVSLLQRRHFLGCGDGEEGGGELSKIYEERRVLGYTPEQMFNVVAAVDLYHGFVPWCQRSEVLKEYPDGSFDAELEIGFKFLVESYISHVESERPKWIKTTARDTGLFDHLINLWQFKPGPIPGTCDLHFHVDFKFNSPLYRQVASMFFKEVASRLVGAFSDRCRLVYGPGVRVDENAYEQRA”, the protein production result is on record as “failed”.
Turning to “MPPLGRPCHLAAMDSTDGPLDLIAERAEAAWSRGDRHRAMTLARLGLGQDDGHPRLLAVLGAFEQAEGRSAAAAGLFRRAMARCGDDPLMLHNLGVALRGAGLIDAAAAAWEGVLRGCPQRFATLFNLARLRDDQGRGEEALALYRRACLADPAASDAAYNLGNLLARRGALAQAAEVLGKAASVTPHDARIQTNLGIVLRRLGDAAGALACQRRAVALDPDLADAQWNLANLLLALDDYDEGFARYEWRKRRAPWRLVDPPLAEWRGEDLAGRRLLVGLEQGAGDMIQAARFLPVLAGRGARVIVEAPDALAGLLATVDGVESVVAPGAWAAARATCHIRAFSLPYRLGLRFADLAATAGPYLRVPPRTPTPPALPPGGQGPCVGLCWSGNPDFTENAVRAAPLAAFAPLTAVEGLTFFSLQKGPAVAELAASGLPVIDLDPWLVDYAATAAAMARLDMVVTTDTSVAHLAGALGRPCLLLLAAHCDWRWGIGRETSPWYPSLRLLRQERLGDWRAPVARAAALLAGLRRGTDTRGPEST”, the protein production entry is recorded as “failed”.
With “MPPLRQTKTWVDRNGSAHVELSPTVPPQTPKRHMRIQSPMEISWSEAVREGGEHSARRCGDMAVSALAKPNPIIDDDPEGNPDVCMYTWIVECPGATAVLLWINGVFDHERIEESEMTRLEGSDLWILSLRMPSDWRASYTVNAWSGDGVAPWREAGDRMHIRKAAMSGGRPDSRAMGHIMDSSLVEGPDALPDCWVAASTSVKVVEETVAGEHFWFYEAPVKAPLLVLFDGQHWNNSMNLPAQVDAAIAIGLLPPVSLLMIDSVNTERRWDSVGVPGGQVDVLIDALLPHVRETYNVSARGEDTIVTGASFGGLASLWALALSDGEVGHAIAQSPSLWRFNVADALSAAEQWSSIHLQAGKYEGEMLRLSHQLAEDLSGDIREVRVRGVHGGHDWAWWRVHMLTELTRLLKTL” the entry was “failed”; with “MPPMHELTIEGLGPCEVEEGTRLVRAIEDCGAAVGHRCGGQSQCTTCRVEFAAGEPPVMTEAEYDKLTDIGRLGEMRLACQIVVDRDMTLTPLMTVEDQGWDDAGPEPALMVEPDAEWFSIETLEQR”, “failed”.
With “MPPRRRPHAGLTLPRILILNLLKALATISSLTMLSRITGLVREILIARAFGASDMTDAFNVAFRIPNLLRRIFAEGAFSQAFVPILNEYHGKRGHDETMSLVDAVATVMTWVLAAVSLLGVIGAPIVMTVVATGFRGDSETYNAAVFMTRVMFPYIGLISMVALASGILNTWRNFAVPAFTPVLLNLCLIVAALFVGPHMSQPIYAQAWGVLVGGVLQLVIQVPAMRKLGVMPRVSLNLRAAWANPGVRRVITQMLPALLAVSVAQISLIINTNIASRLGAGAVSYITYADRLMEFPTALLGVALGTILLPSLSRASAEDNREEYSGLLDWGLRLTFLLALPCAAGLMLFGTPITSVLFHYGRFDAHAVEMTQQALTTYGVGLLALILIKILTPGFYARQDIRTPVKIAILVLIITQASNYVFVPMLQHAGLPLSISFGATVNALLLFYGLRRRGYYHPAPGWGLFLLRLVAAMLILSGMLLWFARNFDWIALGATPGLRIALMGACLVLAATVYFGTLWLMGLRYSSFRRRAG” the entry was “failed”.
With “MPQAKKRTSTKRKGNKKTNKKKQNETPLRYIFSIIVVILIILGAFQLGIIGRMIDSFFNYLFGMSRYLTYILVLIATIFITYSKQIPRTRRSIGAIVLQLALLFIAQLYFHFSHNITSQREPVLSFVYKAYEQTHFPNFGGGLIGFYLLKLFIPLISIVGVIIITILLLASSFILLLNLRHRDVTKSLFDNLKSSSNHASESIKQKREQNKIKKEEKAQLKEAKIERKKQKKSRQNNNVIKDVSDFPEISQSDDIPIYGHNEQEDKRPNTANQRQKRVLDNEQFQQSLPSTKNQSINNNQPSTTAENNQQQSQAEGSISEAGEEANIEYTVPPLSLLKQPTKQKTTSKAEVQRKGQVLESTLKNFGVNAKVTQIKIGPAVTQYEIQPAQGVKVSKIVNLHNDIALALAAKDVRIEAPIPGRSAVGIEVPNDKISLVTLKEVLEDKFPSKYKLEVGIGRDISGDPISIQLNEMPHLLVAGSTGSGKSVCINGIITSILLNTKPHEVKLMLIDPKMVELNVYNGIPHLLIPVVTNPHKASQALEKIVSEMERRYDLFQHSSTRNIEGYNQYIRKQNEELDEKQPELPYIVVIVDELADLMMVAGKEVENAIQRITQMARAAGIHLIVATQRPSVDVITGIIKNNIPSRIAFAVSSQTDSRTIIGAGGAEKLLGKGDMLYVGNGESTTTRIQGAFLSDQEVQDVVNYVVEQQKANYVKEMEPDAPVDKSEMKSEDALYDEAYLFVIEKQKASTSLLQRQFRIGYNRASRLMDDLERNQVIGPQKGSKPRQILVDLENDEV” the entry was “failed”; with “MPQDPTERRVVVTGPPRRARRAFDYYRPRTEIDEQTTLGHTYVRSLMRSQLRAGLAVFAVLVLLVGPLPLVFAAIPDARRLTWAVLGFCLYAPLVLLARWYVRRAERNERDFVRLVEDR”, “failed”; with “MPQFASKAEEKNYYERQASLAEFLTWYHQQELPEYEKPSLTVDMVLLCYNKEADQLKVLLIQRKGHPFRNSWALPGGFVNRNESTEDSVLRETKEETGVVISQENIEQLHSFSRPDRDPRGWVVTVSYLAFIGEEPLIAGDDAKEVHWFNLERHGQHITLSHEDVEITLDLKTAASLGKDTLAFDHSEIIIKAFNRVVDKMEHEPQVLQVLGKDFTITEARKVFAKFLGVDYRSIDHSNFKKAMTQYFEELGERPVGIGRPSKIYQLKTTTGF”, “not failed”.
In the case of “MPQHDKSRLVRIDTGPMINPVAGKPSRPIAGDASFRTVTAFEGGQGKVESGVWESTSGSFQSNTTGYIEYCHIIEGEARLVDPDGTVHAVKAGDAFIMPEGYTGRWEVDRHVKKIYFVTHLA”, the protein production result is recorded as “not failed”.
With “MPQPKKDKPDTPLRSDAQRNRERILAVATEELTHCANAPLSAIAKKAGVGQGTFYRNFPNREALVLEIYRYGMQQVAEAAPEMLATGEPDLALRQWMDRLAEFAMTKAGLADAIRLVTSAPGAPEKPRPTPLEDAAELLLRANHEAGTIRPGVTGDDFFLVLGGLWLIDPGENWQPRVTRFLDLVMDGLRAGAPGR” the entry was “not failed”.
As for “MPQSSRYSDEHVEQLLSEMVNVLEKHHAPTDLALMVLGNMVTNLINTSIAPAQRQILARSFAEALQASIKKADKAHLEHHHHHH”, the protein production result is “failed”.
Turning to “MPQVALFGAVGAIGQSIARTLRSQGQPYRVVGRSQSSLLKAYGADPLAEPVTWDPDQPASVEAAAAGIDTLIYLVGVDYWRFELHPQLMRQTLDGAIAAGVRRILLIGTVYPYGMARSNPVAEQHPRQPNSFKGRMRKAQEDLLWKAHADGKIQATVLRLPDFYGPGVDKSLLHGAFQAAVQGGTANLVGPLDRPHEFVFVPDVGPVVCRLIQQPEAFGKTWHLGGAGVTSQRELLELIRQHGGARFKQRVIGKPLLRLLGLFDPLLREMVEMHYLISSPLILDDSALQALIGPIAKTSYTEGVRQTLAASAGAPQNVKR”, the protein production entry is listed as “failed”.
With “MPRALPRLPRPLLAVLSLSLTLGIAQADTAPLFSADGYRTTHYRSPTPQQVEGGQVVDTATLQSLLGQTPRPVLIDVYRRQWLQGRFIEDQPHSNLPGSLWLANTGDGELSPAWQDYFVRNLQKATAGHLDQPLVFYCRSDCWLSWNAVKRAKALGYNNLYWYRDGLDAWQQANLPLQPAQPVPFP” the entry was “failed”.
With “MPRAPRCRAVRSLLRSHYREVLPLATFVRRLGPQGWRLVQRGDPAAFRALVAQCLVCVPWDARPPPAAPSFRQVSCLKELVARVLQRLCERGAKNVLAFGFALLDGARGGPPEAFTTSVRSYLPNTVTDALRGSGAWGLLLRRVGDDVLVHLLARCALFVLVAPSCAYQVCGPPLYQLGAATQARPPPHASGPRRRLGCE” the entry was “failed”; with “MPRITQEISYNCDYGDNTFNLAIDIGGTLAKVVFSPIHSNRLMFYTIETEKIDKFMELLHSIIKEHNNGCYRMTHIIATGGGAFKFYDLLYENFPQIKGISRFEEMEGLIHGLDFFIHEIPDEVFTYNDQDGERIIPTSSGTMDSKAIYPYLLVNIGSGVSILKVTEPNNFSRVGGSSLGGGTLWGLLSLITGAQTYDQMLDWAQEGDNSSVDMLVGDIYGTDYNKIGLKSSAIASSFGKVFQNRMTSNKSLENNENKLYSSHESIEKNNGQMFKNPDICKSLLFAISNNIGQIAYLQAKINNIQNIYFGGSYTRGHLTTMNTLSYAINFWSQGSKQAFFLKHEGYLGAMGAFLSASRHSSTKKTST”, “failed”; with “MPRKQLKGETHDQKAQIASAFGEIEQSKIFLDKRSESAAVKMDIADLLKEIIQKQLRKDYDPEVESNIFINPERGDFEVYILKKIVKEVDLPTIEIGLDEVRQIDDSLELGDYYEEGPIKLDDYLTRKSIQIIKQSVQKKVRDLERLAVYEECLEKVGEVVAGEVYQVRPNEVIFTYNTSKDHRVELVLPKSEMMKKDNPRRTPRMKLYVKRIEREKVKVRNDDGTVEEREKPDGGMKVIVSRVDDRFLYKLFESEVPEILDGLIVIKGIARVPGERAKVAVESTSSRIDPVGATVGYRGKRIQSIVKELNNENIDVIYYTDEPQVFIARALQPAKIDPMTVHADMKTRKARVMLKPDQIKYAIGKNGNNIHLAEKLTGYEIDVYRDVIDKSLEDPNDIDIIEFREEFGDDMIYQLLDGGLDTAKKILKGGVEKIEEALLGTQKSEELFVFNKTRKPVKPKERRITDDEKRYWKKIAETIYRTVREQFNDEDLKALLDDSHERSLKGDGIDPEEIRDKETNLEHHHHHH”, “failed”.
With “MPRPLSHRNLPMTPQGHCDSRFAPLAEAFARLFDNPQERGAALCLEVGGETVVDLWGGVADKDGEQPWQRDTILNLFSCTKTFTAVAVLQLVAEGKLELDAPVAHYWPEFAAAGKAAISVRQLLCHRAGLPALREQMPPEALYDWQAMTTALAAEEPWWTPGEAHGYAPITYGWLLGEVIRRVDGREPGEAIVARTAAPLGLDFHVGLDDSQFGRVAHMARSKGSLGDAAAQRMLKTMMSEPLALTTRAFTNPPSILTSTNKPEWRRMQQPAANGHGNARALAGFYSGLLQGRLLEDELLGQLAHEHAVGEDRTLLTRTRFGLGTMLDQPGVANATYGLGPKAFGHPGAGGSIGFADPERDLAFSFVSNALGPYVLMDPRAQQLARVAGECL” the entry was “failed”.
“MPRSCDVVVVNYNAGLLLEDCVISVLAQDINRLVLVDNASHDGSLEQVATRFAADERLLILRNPSNTGFAAACNLGASHCEQPHILFLNPDTVLQPGALQGMIDALRHTHDLGMAGGLLCNFDGSEQPGGRRVFPTPRRAVVRALNLSGLAWLSPRLFSDFLLHREPLPSRPTQVEAISGACMLVKRKALDSVGGWDEGYFLHCEDLDLCMRFRQEGWKVCFVPQARIFHAWGACSRTRPVFVEWHKHRGMIRFYGKFFREDYPRVLSWSICAGVWLRFSFVVGYHWLAQLGRILGQPR”: the protein production entry is on record as “failed”.
